Laboratory results as given in IntAct's records for PubMed 19909339.

B1: Olfactory receptor 2AG1 (Homo sapiens), Q9H205 (parent)
chain: MELWNFTLGSGFILVGILNDSGSPELLCATITILYLLALISNGLLLLAITMEARLHMPMYLLLGQLSLMDLLFTSVVTPKALADFLRRENTISFGGCALQMFLALTMGGAEDLLLAFMAYDRYVAICHPLTYMTLMSSRACWLMVATSWILASLSALIYTVYTMHYPFCRAQEIRHLLCEIPHLLKVACADTSRYELMVYVMGVTFLIPSLAAILASYTQILLTVLHMPSNEGRKKALVTCSSHLTVVGMFYGAATFMYVLPSSFHSTRQDNIISVFYTIVTPALNPLIYSLRNKEVMRALRRVLGKYMLPAHSTL

Variants of: B1
Conditions: with mpdz_human MPDZ

effect of a mutation on the interaction | Variant
disrupting interaction | MELWNFTLGSGFILVGILNDSGSPELLCATITILYLLALISNGLLLLAITMEARLHMPMYLLLGQLSLMDLLFTSVVTPKALADFLRRENTISFGGCALQMFLALTMGGAEDLLLAFMAYDRYVAICHPLTYMTLMSSRACWLMVATSWILASLSALIYTVYTMHYPFCRAQEIRHLLCEIPHLLKVACADTSRYELMVYVMGVTFLIPSLAAILASYTQILLTVLHMPSNEGRKKALVTCSSHLTVVGMFYGAATFMYVLPSSFHSTRQDNIISVFYTIVTPALNPLIYSLRNKEVMRALRRVLGKYMLPAHSTW [L316W]
disrupting interaction | MELWNFTLGSGFILVGILNDSGSPELLCATITILYLLALISNGLLLLAITMEARLHMPMYLLLGQLSLMDLLFTSVVTPKALADFLRRENTISFGGCALQMFLALTMGGAEDLLLAFMAYDRYVAICHPLTYMTLMSSRACWLMVATSWILASLSALIYTVYTMHYPFCRAQEIRHLLCEIPHLLKVACADTSRYELMVYVMGVTFLIPSLAAILASYTQILLTVLHMPSNEGRKKALVTCSSHLTVVGMFYGAATFMYVLPSSFHSTRQDNIISVFYTIVTPALNPLIYSLRNKEVMRALRRVLGKYMLPAHWTL [S314W]
